{
  "source": "the Immune Epitope Database (IEDB)",
  "key": {"HLA-C*05:01": {"target": "HLA-C*05:01", "test": "IEDB peptide-MHC binding, purified MHC/direct/fluorescence; filed as Kd, often an IC50 or EC50 that approximates it; ≥ and ≤ were set here for values at or beyond the usual limits of such assays", "settings": "source organism: Burkholderia mallei SAVP1"}, "HLA-C*07:02": {"target": "HLA-C*07:02", "test": "IEDB peptide-MHC binding, purified MHC/direct/fluorescence; filed as Kd, often an IC50 or EC50 that approximates it; ≥ and ≤ were set here for values at or beyond the usual limits of such assays", "settings": "source organism: Burkholderia mallei SAVP1"}, "HLA-C*14:02": {"target": "HLA-C*14:02", "test": "IEDB peptide-MHC binding, purified MHC/direct/fluorescence; filed as Kd, often an IC50 or EC50 that approximates it; ≥ and ≤ were set here for values at or beyond the usual limits of such assays", "settings": "source organism: Burkholderia mallei SAVP1"}, "HLA-B*08:01": {"target": "HLA-B*08:01", "test": "IEDB peptide-MHC binding, purified MHC/direct/fluorescence; filed as Kd, often an IC50 or EC50 that approximates it; ≥ and ≤ were set here for values at or beyond the usual limits of such assays", "settings": "source organism: Burkholderia mallei ATCC 23344"}, "HLA-C*15:02": {"target": "HLA-C*15:02", "test": "IEDB peptide-MHC binding, purified MHC/direct/fluorescence; filed as Kd, often an IC50 or EC50 that approximates it; ≥ and ≤ were set here for values at or beyond the usual limits of such assays", "settings": "source organism: Burkholderia mallei SAVP1"}, "HLA-C*06:02": {"target": "HLA-C*06:02", "test": "IEDB peptide-MHC binding, purified MHC/direct/fluorescence; filed as Kd, often an IC50 or EC50 that approximates it; ≥ and ≤ were set here for values at or beyond the usual limits of such assays", "settings": "source organism: Burkholderia mallei SAVP1"}, "HLA-B*08:02": {"target": "HLA-B*08:02", "test": "IEDB peptide-MHC binding, purified MHC/direct/fluorescence; filed as Kd, often an IC50 or EC50 that approximates it; ≥ and ≤ were set here for values at or beyond the usual limits of such assays", "settings": "source organism: Burkholderia mallei ATCC 23344"}, "HLA-B*45:06": {"target": "HLA-B*45:06", "test": "IEDB peptide-MHC binding, purified MHC/competitive/fluorescence; filed as Kd, often an IC50 or EC50 that approximates it; ≥ and ≤ were set here for values at or beyond the usual limits of such assays", "settings": "source organism: Burkholderia mallei SAVP1"}, "HLA-B*15:42": {"target": "HLA-B*15:42", "test": "IEDB peptide-MHC binding, purified MHC/competitive/fluorescence; filed as Kd, often an IC50 or EC50 that approximates it; ≥ and ≤ were set here for values at or beyond the usual limits of such assays", "settings": "source organism: Burkholderia mallei SAVP1"}, "HLA-B*27:20": {"target": "HLA-B*27:20", "test": "IEDB peptide-MHC binding, purified MHC/competitive/fluorescence; filed as Kd, often an IC50 or EC50 that approximates it; ≥ and ≤ were set here for values at or beyond the usual limits of such assays", "settings": "source organism: Burkholderia mallei SAVP1"}, "HLA-B*83:01": {"target": "HLA-B*83:01", "test": "IEDB peptide-MHC binding, purified MHC/competitive/fluorescence; filed as Kd, often an IC50 or EC50 that approximates it; ≥ and ≤ were set here for values at or beyond the usual limits of such assays", "settings": "source organism: Burkholderia mallei SAVP1"}},
  "data": [
    {"sequence": "YARRYFYPL", "values": [
      {"measurement": "Kd", "setting": "HLA-C*05:01", "result": "≥ 20000", "unit": "nM"},
      {"measurement": "Kd", "setting": "HLA-C*07:02", "result": 362, "unit": "nM"},
      {"measurement": "Kd", "setting": "HLA-C*14:02", "result": 696, "unit": "nM"},
      {"measurement": "Kd", "setting": "HLA-B*08:01", "result": 2, "unit": "nM"},
      {"measurement": "Kd", "setting": "HLA-C*15:02", "result": 11, "unit": "nM"},
      {"measurement": "Kd", "setting": "HLA-C*06:02", "result": "≥ 20000", "unit": "nM"},
      {"measurement": "Kd", "setting": "HLA-B*08:02", "result": 43, "unit": "nM"},
      {"measurement": "Kd", "setting": "HLA-B*45:06", "result": "≥ 5000", "unit": "nM"},
      {"measurement": "Kd", "setting": "HLA-B*15:42", "result": "≥ 5000", "unit": "nM"},
      {"measurement": "Kd", "setting": "HLA-B*27:20", "result": 24.4, "unit": "nM"},
      {"measurement": "Kd", "setting": "HLA-B*83:01", "result": "≥ 5000", "unit": "nM"}
    ]}
  ]
}
